Data reported in article PMC9047069, “Multifaceted Activities of Seven Nanobodies against Complement C4b” (The Journal of Immunology Author Choice, 2022).

Legend:
human complement C4b [1] = molecular target: T1, human complement C4b (human, UniProt P0C0L4, biotin (EZ link Maleimide-PEG2-Biotin) coupled to its thiol group, only where C4b was held on the SPR chip); test: SPR; biotinylated nanobodies (100 nM) spotted on a streptavidin chip; kinetic titration with C4b as analyte, five-step twofold dilution without regeneration, last dissociation 1 h; 20 mM HEPES pH 7.4, 150 mM NaCl, 3 mM MgCl2; NbE11 and NbH11 fitted with mass transport; duplicate; conditions: both partners purified
T1 construct: beta chain (75 kDa) of human complement C4; alpha' chain (87 kDa) of human C4b, the alpha chain of C4 after removal of C4a; gamma chain (33 kDa) of human complement C4; One molecule for unlabelled C4b (SEC, cryo-EM, analyte in SPR), C4b biotinylated at the thiol (ligand in SPR) and C4b deposited on erythrocytes from serum; The CTC domain is not in the deposited models; source: bought: Complement …
T1 sequence (P0C0L4 20-675, chain 1 of 3): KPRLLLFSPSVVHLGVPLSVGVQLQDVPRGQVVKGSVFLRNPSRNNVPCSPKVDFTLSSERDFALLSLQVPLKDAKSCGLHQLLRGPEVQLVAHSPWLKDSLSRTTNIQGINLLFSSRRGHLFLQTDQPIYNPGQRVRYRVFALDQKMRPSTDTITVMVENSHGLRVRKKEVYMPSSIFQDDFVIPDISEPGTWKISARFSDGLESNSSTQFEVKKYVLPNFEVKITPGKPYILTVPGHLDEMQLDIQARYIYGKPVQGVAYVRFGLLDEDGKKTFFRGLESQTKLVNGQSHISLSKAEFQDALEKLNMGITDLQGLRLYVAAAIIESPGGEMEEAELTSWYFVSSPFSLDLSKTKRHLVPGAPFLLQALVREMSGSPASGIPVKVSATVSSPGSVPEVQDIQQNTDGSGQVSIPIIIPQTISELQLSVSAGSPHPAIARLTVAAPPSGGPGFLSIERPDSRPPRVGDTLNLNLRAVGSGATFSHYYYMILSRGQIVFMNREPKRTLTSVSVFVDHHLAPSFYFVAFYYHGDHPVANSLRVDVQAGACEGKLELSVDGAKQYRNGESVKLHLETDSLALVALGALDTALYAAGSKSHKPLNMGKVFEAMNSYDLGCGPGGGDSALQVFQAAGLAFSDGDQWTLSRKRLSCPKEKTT
T1 sequence (P0C0L4 757-1446, chain 2 of 3): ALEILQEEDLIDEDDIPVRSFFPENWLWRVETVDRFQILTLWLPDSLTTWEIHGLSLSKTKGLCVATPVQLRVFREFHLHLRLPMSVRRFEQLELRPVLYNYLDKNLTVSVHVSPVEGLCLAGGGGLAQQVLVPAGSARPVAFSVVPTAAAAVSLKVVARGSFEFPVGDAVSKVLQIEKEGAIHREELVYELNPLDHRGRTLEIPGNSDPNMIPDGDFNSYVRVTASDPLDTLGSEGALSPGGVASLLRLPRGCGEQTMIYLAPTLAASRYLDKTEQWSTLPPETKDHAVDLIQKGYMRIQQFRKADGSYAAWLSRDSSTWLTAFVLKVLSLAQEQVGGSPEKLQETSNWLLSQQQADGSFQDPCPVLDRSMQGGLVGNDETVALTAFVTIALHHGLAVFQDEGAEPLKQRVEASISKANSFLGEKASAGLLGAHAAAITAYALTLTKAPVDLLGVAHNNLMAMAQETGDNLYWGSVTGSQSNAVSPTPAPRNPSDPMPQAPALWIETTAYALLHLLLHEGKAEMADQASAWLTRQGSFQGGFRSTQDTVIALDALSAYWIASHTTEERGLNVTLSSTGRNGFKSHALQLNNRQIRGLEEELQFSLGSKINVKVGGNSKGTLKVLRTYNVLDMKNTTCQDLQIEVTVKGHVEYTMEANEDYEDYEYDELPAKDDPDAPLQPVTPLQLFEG
T1 sequence (P0C0L4 1454-1744, chain 3 of 3): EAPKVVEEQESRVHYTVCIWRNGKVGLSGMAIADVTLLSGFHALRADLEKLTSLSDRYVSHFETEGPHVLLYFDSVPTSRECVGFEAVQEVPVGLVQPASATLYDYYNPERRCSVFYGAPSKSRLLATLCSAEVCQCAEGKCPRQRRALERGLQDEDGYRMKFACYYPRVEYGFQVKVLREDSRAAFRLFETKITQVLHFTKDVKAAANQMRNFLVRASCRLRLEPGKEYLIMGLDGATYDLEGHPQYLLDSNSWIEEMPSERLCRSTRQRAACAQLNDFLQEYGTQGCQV

human complement C4b [2] = molecular target: T1, human complement C4b; test: SPR; biotinylated C4b (50 nM) spotted on a planar streptavidin chip through its thiol group; nanobodies injected in a 14-step twofold dilution series; IBIS-MX96; 20 mM HEPES pH 7.4, 150 mM NaCl, 3 mM MgCl2; simple bimolecular model, NbE3 with mass transport; duplicate; conditions: both partners purified

| Kd (human complement C4b [1]) [nM] | koff (human complement C4b [1]) [s⁻¹] | Kd (human complement C4b [2]) [nM] | koff (human complement C4b [2]) [s⁻¹] | Binder |
| --- | --- | --- | --- | --- |
| 0.067 ± 0.006 | 1.3e-05 |  |  | NbB5 (VHH, Vector: modified pHEN6 with thrombin cleavage site and 6xHis, N-terminal pelB leader for periplasmic secretion; no cleavage of the tag is told; source: E. coli BL21 Codon Plus (DE3)-RIL, periplasm, purified (Ni-NTA, SEC)) VHH: EVQLVESGGGLVQPGGSLRLSCAASGFTFSSYHMSWVRQAPGKGLEWISVINDSGDLTRYADSVKGRFTISRDNAKNTLYLQMNSLQPEDTAVYSCLKSSDFYSYSNADSRGQGTQVTVSS |
|  |  | 0.318 ± 0.01 | 0.0066 | NbE3 (VHH, Vector: modified pHEN6 with thrombin cleavage site and 6xHis, N-terminal pelB leader; no cleavage of the tag is told; also called NbBE3; source: E. coli BL21 Codon Plus (DE3)-RIL, periplasm, purified (Ni-NTA, SEC)) VHH: EVQLVESGGGLVQAGGSLRLSCAASGSDFSANAVGWYRQAPGKQRVVVASISSTGNTKYSNSVKGRFTISRDNAKNTVYLQMNSLKPEDTAVYYCWLFRFGIENYWGQGTQVTVSS |
| 0.014 ± 0.004 | 3.8e-06 |  |  | NbB12 (VHH, Vector: modified pHEN6 with thrombin cleavage site and 6xHis, N-terminal pelB leader; no cleavage of the tag is told; also called NbB12-AF488; source: E. coli BL21 Codon Plus (DE3)-RIL, periplasm, purified (Ni-NTA, SEC)) VHH: EVQLVESGGGLVQAGGSLRLSCVASERTYMAWFRQAPGKEREFVAAITSSGMMTEYAPSVKGRFTISRDNAKNTVYLQMNSLKPEDTAVYYCAADLRQRFGERVTEYDYWGQGTQVTVSS |
